Consider two molecules from paper PMC3593662.

Series [1] concerns O=[N+]([O-])c1ccccc1O[C@@H]1O[C@H](CO)[C@H](O)[C@H](O)[C@H]1O. In words: o-nitrophenol release, A420, Michaelis-Menten non-linear fit. It is filed as biochemical, Bifidobacterium longum subsp. infantis. To be noted: optimum pH 5.0 and optimum temperature 45-55 °C, 0.1-4 mM ONPG.
Substrate in series [2]: O=[N+]([O-])c1ccccc1O[C@@H]1O[C@H](CO)[C@H](O)[C@H](O)[C@H]1O
Described as above. It is filed as biochemical, Bifidobacterium longum. To be noted: optimum pH 5.0-6.0 and optimum temperature 45-55 °C, 0.1-4 mM ONPG.

Turning to “Blon_0268 (Bifidobacterium longum subsp. infantis ATCC 15697 = JCM 1222 = DSM 20088)”, in series [1], the Km amounted to 600 µM, the kcat came to 5.11 s⁻¹ and the kcat/Km turned out to be 8500 M⁻¹ s⁻¹.

B1: Blon_2123 (Bifidobacterium longum subsp. infantis ATCC 15697 = JCM 1222 = DSM 20088) (protein)
chain: MRARRDFAWPKLLTADGRGIAFGGDYNPDQWPEDVWDDDIRLMGQAGVNTVALAIFSWDRLQPTEDHWNFDWLDRIIDKLGQAGIAVDLASATATAPLWLYENHPEVLPRDKYGHPVNAGSRQSWSPTSPVFKEYALTLCRKLAERYGTNPYVTAWHMGNEYGWNNRDDYSDNALEAFRAWCRRKYGTIDALNQAWGTTFWGQEMTGFDEVLIPRFMGADSMVNPGQKLDFERFGNDMLLDFYKAERDAIAEICPDKPFTTNFMISTDQCCMDYAAWAEEVNFVSNDHYFHEGESHLDELACSDALVDSLALGKPWYVMEHSTSAVQWKPLNTRKRNGETVRDSLAHVAMGADAINFFQWRASAFGAEAFHSAMVPHAGENTKLFRQVCELGATLQALADAGVQGSELAHADTAILFSAESEWATRSETLPSMKLNHWHDVRDWYRAFLNAGARADIVPLAYDWSSYKTIVLPTVLMLSDADTRRLAGFVQDGGRVVVGYATGLLDERFHTWLGGYPGAGDGLLRSMLGVRGEEFNILGTETEDEPSEIRLASTGDSPTMDGAVTRLWQNDVTVAGPHVQVLAAYAGEEANEWELDGTAAITRNTYGEGEAYFLGCDLGVSDLTRFVGGWLAARPQDGRQPEANLRSPASGVTSDVLHTVRQSDDAIFDFYLTRGKSDVELRDIAGEPIVLFRAERGSDGGAYTVHRNGVLVMKRPNPSV
B1: in series [2], the Km was determined as 1060 µM, the kcat came out at 270 s⁻¹ and the kcat/Km turned out to be 250000 M⁻¹ s⁻¹.

As a reminder, the Km is the substrate concentration at which the rate is half of its maximum. A word on the kcat: it is the number of substrate molecules converted per active site and unit of time at saturation. Broadly, the kcat/Km is the turnover number divided by the Michaelis constant.
